The values that follow come from patent EP2270053A1 (U3 Pharma GmbH, dated 2011).

T1: human receptor tyrosine kinase AXL (human, UniProt P30530 26-894)
T1 construct: also called hAXL; human AXL on NIH3T3-AXL cl.7, Ratl-AXL cl.2, Hs578T, NCI-H292 and CaSki cells
T1 sequence: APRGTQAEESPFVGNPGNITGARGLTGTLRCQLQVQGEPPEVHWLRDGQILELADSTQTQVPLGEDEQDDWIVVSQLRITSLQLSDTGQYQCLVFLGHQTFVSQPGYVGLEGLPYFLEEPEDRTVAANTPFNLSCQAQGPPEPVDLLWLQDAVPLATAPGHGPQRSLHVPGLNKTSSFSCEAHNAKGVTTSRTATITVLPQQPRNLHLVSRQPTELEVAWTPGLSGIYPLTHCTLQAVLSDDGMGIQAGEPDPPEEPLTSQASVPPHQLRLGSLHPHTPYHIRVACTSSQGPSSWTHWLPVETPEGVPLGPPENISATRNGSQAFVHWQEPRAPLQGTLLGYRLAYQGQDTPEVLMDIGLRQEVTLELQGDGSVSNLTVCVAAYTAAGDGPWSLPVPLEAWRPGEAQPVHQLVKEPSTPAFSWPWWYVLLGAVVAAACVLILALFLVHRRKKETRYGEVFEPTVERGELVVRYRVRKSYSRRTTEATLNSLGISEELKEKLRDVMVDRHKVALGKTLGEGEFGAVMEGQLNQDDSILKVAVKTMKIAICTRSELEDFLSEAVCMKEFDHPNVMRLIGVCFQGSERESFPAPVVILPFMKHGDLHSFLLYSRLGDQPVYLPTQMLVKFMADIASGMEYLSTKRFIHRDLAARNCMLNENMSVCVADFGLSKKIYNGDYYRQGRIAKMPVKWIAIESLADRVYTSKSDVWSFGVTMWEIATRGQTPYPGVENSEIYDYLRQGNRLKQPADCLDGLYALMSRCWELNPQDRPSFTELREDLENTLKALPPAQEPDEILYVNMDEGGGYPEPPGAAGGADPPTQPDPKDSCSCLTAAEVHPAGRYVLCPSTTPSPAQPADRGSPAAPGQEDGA

B1: rat anti-human AXL monoclonal antibody #11D5 (antibody, rat IgG2a, V domains shown)
VH: EVQLQESGPGLVKPSQSLSLTCSVTGYSITSNYWGWIRKFPGNKMEWIGHITNSGNTTYNPSLKSRISISRDTSRNQFFLQLNSVTTEDTATYYCAKGAFDYWGQGVMVTVSS
VL: DIQMTQSPSSMSTSLGDRVTITCRASQDIGNYLSWFQQKVGKSPRRMIYGAIKLAVGVPSRFSGSRSGSDYSLTISSLESEDMAIYYCLQYIQFPLTFGSGTKLELKR
notes: also called III11D5
B2: chimeric anti-AXL antibody ch11D5-IgG1 (antibody, V domains shown)
VH: B1 VH
VL: B1 VL
notes: also called chm11D5; human chimeric antibody (of #11D5)
B3: rat anti-human AXL monoclonal antibody #11B7 (antibody, rat IgG1, V domains shown)
VH: EVQLQESGPGLVKPSQSLSLTCSVTGYSITSNYWGWIRKFPGDKMEWMGYITYSGSTSYNPSLKSRISITRDTSKNQFFLQLNSVTSEDTATYYCAITTFYYWGQGVMVTVSS
VL: DIQMTQAPSSLPASLGDRVTITCRASQDIGNYLRWFQQKPGKSPRLMISGATNLAAGVPSRFSGSRSGSDYSLTISSLESEDMADYYCLQSKESPWTFGGGTKLELKR
notes: also called I11B7; rat anti-Axl antibody 11B7
B4: chimeric anti-AXL antibody ch11B7-IgG1 (antibody, V domains shown)
VH: B3 VH
VL: B3 VL
notes: Rat 11B7 variable domains on human IgG1 / human kappa; also called chm11B7; chimeric anti-AXL mAb #11B7

This assay has as its target T1, human receptor tyrosine kinase AXL. Kind of assay: FACS Scatchard, apparent KD (KDapp) on NIH3T3 cells overexpressing human AXL.
Consider B1, for which the Kd came out at 810 pM. In the case of B2 it was 400 pM; in that of B3, 380 pM.

B4: the Kd stood at 600 pM.
